Experimental data as given in patent publication US20250171562A1.

B1: CIgG4F1A1(G4S)3 (Fc fusion)
chain 1: GPPCPPCPAPEFLGGPSVFLFPPKPKDTLMISRTPEVTCVVVDVSQEDPEVQFNWYVDGVEVHNAKTKPREEQFNSTYRVVSVLTVLHQDWLNGKEYKCKVSNKGLPSSIEKTISKAKGQPREPQVYTLPPCQEEMTKNQVSLWCLVKGFYPSDIAVEWESNGQPENNYKTTPPVLDSDGSFFLYSRLTVDKSRWQEGNVFSCSVMHEALHNHYTQKSLSLSLGKGGGGSGGGGSGGGGSDVQLQESGGGLVQAGGSLKLSCAASGGSLSRYDMGWFRQAPGKEREFVARISWSGTTKYYADAVKGRFAISRDNAKNTVYLQMNSLKPEDTAVYYCAAAFYGNRGYYDVNAYTSSGQGTQVTVS
chain 2: GPPCPPCPAPEFLGGPSVFLFPPKPKDTLMISRTPEVTCVVVDVSQEDPEVQFNWYVDGVEVHNAKTKPREEQFNSTYRVVSVLTVLHQDWLNGKEYKCKVSNKGLPSSIEKTISKAKGQPREPQVCTLPPSQEEMTKNQVSLSCAVKGFYPSDIAVEWESNGQPENNYKTTPPVLDSDGSFFLVSRLTVDKSRWQEGNVFSCSVMHEALHNHYTQKSLSLSLGKGGGGSGGGGSGGGGSEVQLLESGGGLVQPGGSLRLSCAASGFTFGNYDMAWVRQAPGKRPEWVSSIDTGGDITHYADSVKGRFTISRDNAKNTLYLQMNSLRPEDTAVYWCATDEEYALGPNEFDYYGQGTLVTVSS
B2: NIgG4F2A1(RS) (Fc fusion)
chain 1: DVQLQESGGGLVQAGGSLKLSCAASGGSLSRYDMGWFRQAPGKEREFVARISWSGDTKYYADAVEGRFAISRDNAQNTVYLQMNSLKPEDTAVYYCAVALYGNRGYYDVNTYSYWGQGTRVTVSRSGPPCPPCPAPEFLGGPSVFLFPPKPKDTLMISRTPEVTCVVVDVSQEDPEVQFNWYVDGVEVHNAKTKPREEQFNSTYRVVSVLTVLHQDWLNGKEYKCKVSNKGLPSSIEKTISKAKGQPREPQVYTLPPCQEEMTKNQVSLWCLVKGFYPSDIAVEWESNGQPENNYKTTPPVLDSDGSFFLYSRLTVDKSRWQEGNVFSCSVMHEALHNHYTQKSLSLSLGK
chain 2: EVQLLESGGGLVQPGGSLRLSCAASGFTFGNYDMAWVRQAPGKRPEWVSSIDTGGDITHYADSVKGRFTISRDNAKNTLYLQMNSLRPEDTAVYWCATDEEYALGPNEFDYYGQGTLVTVSSRSGPPCPPCPAPEFLGGPSVFLFPPKPKDTLMISRTPEVTCVVVDVSQEDPEVQFNWYVDGVEVHNAKTKPREEQFNSTYRVVSVLTVLHQDWLNGKEYKCKVSNKGLPSSIEKTISKAKGQPREPQVCTLPPSQEEMTKNQVSLSCAVKGFYPSDIAVEWESNGQPENNYKTTPPVLDSDGSFFLVSRLTVDKSRWQEGNVFSCSVMHEALHNHYTQKSLSLSLGK
B3: NIgG4F2A1(G4S)1 (Fc fusion)
chain 1: DVQLQESGGGLVQAGGSLKLSCAASGGSLSRYDMGWFRQAPGKEREFVARISWSGDTKYYADAVEGRFAISRDNAQNTVYLQMNSLKPEDTAVYYCAVALYGNRGYYDVNTYSYWGQGTRVTVSGGGGSGPPCPPCPAPEFLGGPSVFLFPPKPKDTLMISRTPEVTCVVVDVSQEDPEVQFNWYVDGVEVHNAKTKPREEQFNSTYRVVSVLTVLHQDWLNGKEYKCKVSNKGLPSSIEKTISKAKGQPREPQVYTLPPCQEEMTKNQVSLWCLVKGFYPSDIAVEWESNGQPENNYKTTPPVLDSDGSFFLYSRLTVDKSRWQEGNVFSCSVMHEALHNHYTQKSLSLSLGK
chain 2: EVQLLESGGGLVQPGGSLRLSCAASGFTFGNYDMAWVRQAPGKRPEWVSSIDTGGDITHYADSVKGRFTISRDNAKNTLYLQMNSLRPEDTAVYWCATDEEYALGPNEFDYYGQGTLVTVSSGGGGSGPPCPPCPAPEFLGGPSVFLFPPKPKDTLMISRTPEVTCVVVDVSQEDPEVQFNWYVDGVEVHNAKTKPREEQFNSTYRVVSVLTVLHQDWLNGKEYKCKVSNKGLPSSIEKTISKAKGQPREPQVCTLPPSQEEMTKNQVSLSCAVKGFYPSDIAVEWESNGQPENNYKTTPPVLDSDGSFFLVSRLTVDKSRWQEGNVFSCSVMHEALHNHYTQKSLSLSLGK
B4: NIgG4F2A1(G4S)2 (Fc fusion)
chain 1: DVQLQESGGGLVQAGGSLKLSCAASGGSLSRYDMGWFRQAPGKEREFVARISWSGDTKYYADAVEGRFAISRDNAQNTVYLQMNSLKPEDTAVYYCAVALYGNRGYYDVNTYSYWGQGTRVTVSGGGGSGGGGSGPPCPPCPAPEFLGGPSVFLFPPKPKDTLMISRTPEVTCVVVDVSQEDPEVQFNWYVDGVEVHNAKTKPREEQFNSTYRVVSVLTVLHQDWLNGKEYKCKVSNKGLPSSIEKTISKAKGQPREPQVYTLPPCQEEMTKNQVSLWCLVKGFYPSDIAVEWESNGQPENNYKTTPPVLDSDGSFFLYSRLTVDKSRWQEGNVFSCSVMHEALHNHYTQKSLSLSLGK
chain 2: EVQLLESGGGLVQPGGSLRLSCAASGFTFGNYDMAWVRQAPGKRPEWVSSIDTGGDITHYADSVKGRFTISRDNAKNTLYLQMNSLRPEDTAVYWCATDEEYALGPNEFDYYGQGTLVTVSSGGGGSGGGGSGPPCPPCPAPEFLGGPSVFLFPPKPKDTLMISRTPEVTCVVVDVSQEDPEVQFNWYVDGVEVHNAKTKPREEQFNSTYRVVSVLTVLHQDWLNGKEYKCKVSNKGLPSSIEKTISKAKGQPREPQVCTLPPSQEEMTKNQVSLSCAVKGFYPSDIAVEWESNGQPENNYKTTPPVLDSDGSFFLVSRLTVDKSRWQEGNVFSCSVMHEALHNHYTQKSLSLSLGK
B5: NIgG4F2A1(G4S)3 (Fc fusion)
chain 1: DVQLQESGGGLVQAGGSLKLSCAASGGSLSRYDMGWFRQAPGKEREFVARISWSGDTKYYADAVEGRFAISRDNAQNTVYLQMNSLKPEDTAVYYCAVALYGNRGYYDVNTYSYWGQGTRVTVSGGGGSGGGGSGGGGSGPPCPPCPAPEFLGGPSVFLFPPKPKDTLMISRTPEVTCVVVDVSQEDPEVQFNWYVDGVEVHNAKTKPREEQFNSTYRVVSVLTVLHQDWLNGKEYKCKVSNKGLPSSIEKTISKAKGQPREPQVYTLPPCQEEMTKNQVSLWCLVKGFYPSDIAVEWESNGQPENNYKTTPPVLDSDGSFFLYSRLTVDKSRWQEGNVFSCSVMHEALHNHYTQKSLSLSLGK
chain 2: EVQLLESGGGLVQPGGSLRLSCAASGFTFGNYDMAWVRQAPGKRPEWVSSIDTGGDITHYADSVKGRFTISRDNAKNTLYLQMNSLRPEDTAVYWCATDEEYALGPNEFDYYGQGTLVTVSSGGGGSGGGGSGGGGSGPPCPPCPAPEFLGGPSVFLFPPKPKDTLMISRTPEVTCVVVDVSQEDPEVQFNWYVDGVEVHNAKTKPREEQFNSTYRVVSVLTVLHQDWLNGKEYKCKVSNKGLPSSIEKTISKAKGQPREPQVCTLPPSQEEMTKNQVSLSCAVKGFYPSDIAVEWESNGQPENNYKTTPPVLDSDGSFFLVSRLTVDKSRWQEGNVFSCSVMHEALHNHYTQKSLSLSLGK
B6: CIgG4F2A1(RS) (Fc fusion)
chain 1: GPPCPPCPAPEFLGGPSVFLFPPKPKDTLMISRTPEVTCVVVDVSQEDPEVQFNWYVDGVEVHNAKTKPREEQFNSTYRVVSVLTVLHQDWLNGKEYKCKVSNKGLPSSIEKTISKAKGQPREPQVYTLPPCQEEMTKNQVSLWCLVKGFYPSDIAVEWESNGQPENNYKTTPPVLDSDGSFFLYSRLTVDKSRWQEGNVFSCSVMHEALHNHYTQKSLSLSLGKRSDVQLQESGGGLVQAGGSLKLSCAASGGSLSRYDMGWFRQAPGKEREFVARISWSGDTKYYADAVEGRFAISRDNAQNTVYLQMNSLKPEDTAVYYCAVALYGNRGYYDVNTYSYWGQGTRVTVS
chain 2: GPPCPPCPAPEFLGGPSVFLFPPKPKDTLMISRTPEVTCVVVDVSQEDPEVQFNWYVDGVEVHNAKTKPREEQFNSTYRVVSVLTVLHQDWLNGKEYKCKVSNKGLPSSIEKTISKAKGQPREPQVCTLPPSQEEMTKNQVSLSCAVKGFYPSDIAVEWESNGQPENNYKTTPPVLDSDGSFFLVSRLTVDKSRWQEGNVFSCSVMHEALHNHYTQKSLSLSLGKRSEVQLLESGGGLVQPGGSLRLSCAASGFTFGNYDMAWVRQAPGKRPEWVSSIDTGGDITHYADSVKGRFTISRDNAKNTLYLQMNSLRPEDTAVYWCATDEEYALGPNEFDYYGQGTLVTVSS

What follows are binders tested against mixture of three Der p 2 specific recombinant human IgE clones H10, H12, P4E (human) (UniProt P01854) (assay: RBL-SX38 IgE displacement, FACS).
Sequence of mixture of three Der p 2 specific recombinant human IgE clones H10, H12, P4E (human) (P01854 other isoform, or with tags, fused parts or gaps): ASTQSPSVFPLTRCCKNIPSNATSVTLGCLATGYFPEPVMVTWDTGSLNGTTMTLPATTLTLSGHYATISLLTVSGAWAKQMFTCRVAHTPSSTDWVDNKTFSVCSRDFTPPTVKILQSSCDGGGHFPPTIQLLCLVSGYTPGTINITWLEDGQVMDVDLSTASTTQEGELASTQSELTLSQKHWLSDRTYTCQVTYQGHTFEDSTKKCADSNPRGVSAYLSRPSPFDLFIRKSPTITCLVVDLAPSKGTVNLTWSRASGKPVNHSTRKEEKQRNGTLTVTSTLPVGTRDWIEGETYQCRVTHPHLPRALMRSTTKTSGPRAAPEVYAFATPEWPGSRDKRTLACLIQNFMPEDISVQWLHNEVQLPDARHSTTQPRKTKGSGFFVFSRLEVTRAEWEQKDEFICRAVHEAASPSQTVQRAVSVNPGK

Question: B1 was tested. Which Max effect/effect 1 µM did it give?
Answer: The Max effect/effect 1 µM was 0%.

Question: What does the source list for B2?
Answer: EC50: 2 nM; Max effect/effect 1 µM: 88%

Question: What does the source list for B3?
Answer: EC50: 2 nM; Max effect/effect 1 µM: 92%

Question: What does the source list for B4?
Answer: EC50: 2 nM; Max effect/effect 1 µM: 94%

Question: With B5 as the binder, how does the EC50 read?
Answer: Its EC50 is 2 nM.

Question: What about the Max effect/effect 1 µM of the same binder?
Answer: Its Max effect/effect 1 µM is 95%.

Question: With B6 as the binder, how does the Max effect/effect 1 µM read?
Answer: Its Max effect/effect 1 µM is 3%.
